The values below come from US20200199241A1 (Chugai, published 2020).

Assay [1] addresses T1, FcγRIIb (human, UniProt P31994 43-217, limits assumed).
T1 construct: SPR analyte; also called FcγIIB; CD32
T1 sequence: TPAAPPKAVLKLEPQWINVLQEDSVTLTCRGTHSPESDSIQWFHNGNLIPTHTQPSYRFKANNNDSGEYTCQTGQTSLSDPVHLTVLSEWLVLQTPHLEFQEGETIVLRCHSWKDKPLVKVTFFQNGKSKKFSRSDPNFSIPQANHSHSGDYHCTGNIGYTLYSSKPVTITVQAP
The experiment in a line: ratio of SPR KDs; reference IL6R-B3/IL6R-L.

A further assay deals with T2, FcγRIa (human, UniProt P12314 16-292, limits assumed).
T2 construct: SPR analyte; also called CD64
T2 sequence (P12314 16-292 limits assumed): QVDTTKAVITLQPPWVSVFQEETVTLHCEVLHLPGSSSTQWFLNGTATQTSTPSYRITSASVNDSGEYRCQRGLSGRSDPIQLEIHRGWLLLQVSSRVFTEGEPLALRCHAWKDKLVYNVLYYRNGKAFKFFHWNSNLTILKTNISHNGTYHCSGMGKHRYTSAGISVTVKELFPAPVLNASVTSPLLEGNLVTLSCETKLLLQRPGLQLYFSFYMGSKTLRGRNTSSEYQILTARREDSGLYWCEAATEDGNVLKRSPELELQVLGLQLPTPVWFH
Put plainly: SPR (Biacore), antibody captured, FcγR analyte.

The target of assay [2] is T3, FcγRIIa type R (human, UniProt P12318 36-217).
T3 construct: SPR analyte; also called FcγRIIaR; FcγRIIa(R)
T3 chain: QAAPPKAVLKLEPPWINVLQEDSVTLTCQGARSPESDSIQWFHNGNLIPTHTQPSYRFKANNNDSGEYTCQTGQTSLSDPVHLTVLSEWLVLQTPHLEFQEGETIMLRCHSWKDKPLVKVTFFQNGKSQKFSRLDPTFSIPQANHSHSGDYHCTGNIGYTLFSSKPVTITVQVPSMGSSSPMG
The experiment in a line: SPR (Biacore), antibody captured, FcγR analyte.

In a further assay the target is T4, FcγRIIa type H (human, UniProt P12318 36-217).
T4 construct: SPR analyte; also called FcγRIIaH
T4 sequence: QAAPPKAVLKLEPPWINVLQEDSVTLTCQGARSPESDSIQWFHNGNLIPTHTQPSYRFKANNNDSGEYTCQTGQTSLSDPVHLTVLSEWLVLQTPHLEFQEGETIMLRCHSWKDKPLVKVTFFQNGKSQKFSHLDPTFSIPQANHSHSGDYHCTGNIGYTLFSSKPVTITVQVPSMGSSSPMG
The experiment in a line: SPR (Biacore), antibody captured, FcγR analyte.

Assay [3] has as its target T1, FcγRIIb. Put plainly: SPR (Biacore), antibody captured, FcγR analyte.
Another assay concerns the target T5, FcγRIIIa type V (human, UniProt P08637 17-208, limits assumed).
T5 construct: SPR analyte; allotype V158 was used here; also called FcγRIIIaV; FcγRIIIa(V)
The experiment in a line: SPR (Biacore), antibody captured, FcγR analyte.

The target of assay [4] is T1, FcγRIIb. The experiment in a line: ratio of SPR KDs: KD for FcγRIIaH over KD for FcγRIIb.
Source text: (§1) Furthermore, KD(IIaR)/KD(IIb) and KD(IIaH)/KD(IIb) in the table respectively represent the value obtained by dividing the KD value of each variant for FcγRIIaR by the KD value of each variant for FcγRIIb, and the value obtained by dividing the KD value of each variant for FcγRIIaH by the KD value of each variant for FcγRIIb.
The target of assay [5] is T1, FcγRIIb. The experiment in a line: ratio of SPR KDs: KD for FcγRIIaR over KD for FcγRIIb.
Source text: as §1
In assay [6] the target is T3, FcγRIIa type R. Put plainly: ratio of SPR KDs; stronger receptor here FcγRIIaR; reference IL6R-B3/IL6R-L (FcγRIIaH).
Source text: Furthermore, KD(IIaR)/KD(IIb) and KD(IIaH)/KD(IIb) in the table respectively represent the value obtained by dividing the KD value of each variant for FcγRIIaR by the KD value of each variant for FcγRIIb, and the value obtained by dividing the KD value of each variant for FcγRIIaH by the KD value of each variant for FcγRIIb. KD(IIb) of the parent polypeptide/KD(IIb) of the altered polypeptide refers to the value obtained by dividing the KD value of the parent polypeptide for FcγRIIb by the KD value of each variant for FcγRIIb.

T5 sequence (P08637 other isoform, or with tags, fused parts or gaps limits assumed): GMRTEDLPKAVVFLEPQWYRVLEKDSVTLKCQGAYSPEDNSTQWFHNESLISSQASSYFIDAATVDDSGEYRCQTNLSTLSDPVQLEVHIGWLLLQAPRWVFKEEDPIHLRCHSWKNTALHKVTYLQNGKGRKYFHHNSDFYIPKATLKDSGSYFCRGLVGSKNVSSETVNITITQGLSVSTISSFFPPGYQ

B1: IL6R-BP086/IL6R-L (antibody, human IgG1)
heavy: QVQLQESGPGLVKPSETLSLTCAVSGHSISHDHAWSWVRQPPGEGLEWIGFISYSGITNYNPSLQGRVTISRDNSKNTLYLQMNSLRAEDTAVYYCARSLARTTAMDYWGEGTLVTVSSASTKGPSVFPLAPSSKSTSGGTAALGCLVKDYFPEPVTVSWNSGALTSGVHTFPAVLQSSGLYSLSSVVTVPSSSLGTQTYICNVNHKPSNTKVDKKVEPKSCDKTHTCPPCPAPELLGGDSVFLFPPKPKDTLMISRTPEVTCVVVDVSHEDPEVKFNWYVDGVEVHNAKTKPREEQYNSTYRVVSVLTVLHQDWLNGKEYKCKVSNAALPKPIEKTISKAKGQPREPQVYTLPPSRDELTKNQVSLTCLVKGFYPSDIAVEWESNGQPENNYKTTPPVLDSDGSFFLYSKLTVDKSRWQQGNVFSCSVMHEALHNHYTQESLSLSP
light: DIQMTQSPSSLSASVGDRVTITCRASQDISSYLNWYQQKPGKAPKLLIYYTSRLHSGVPSRFSGSGSGTDFTFTISSLQPEDIATYYCQQGNTLPYTFGQGTKVEIK
For B1, in the assay with FcγRIIb [1], the “KD(IIb) of the parent polypeptide/KD(IIb) of altered polypeptide” value (“KD(IIb) … of altered polypeptide” for short) is 5.4. For the same molecule, the dissociation constant Kd with FcγRIa came out at 0.027 µM; with FcγRIIa type R [2], 9.7 µM; in the assay with FcγRIIa type H it was 34 µM; with FcγRIIb [3], 0.57 µM; with FcγRIIIa type V, 57 µM. Also, the “KD(IIaH)/KD(IIb)” value with FcγRIIb [4] worked out at 59.9. The “KD(IIaR)/KD(IIb)” value in the assay with FcγRIIb [5] was found to be 17.1. For the same molecule, in the assay with FcγRIIa type R [6], the “KD of the stronger of FcγRIIaR/FcγRIIaH binding of the variant / that of the parent polypeptide” value was determined as 12.6.

B2: IL6R-BP149/IL6R-L (antibody, human IgG1)
heavy: QVQLQESGPGLVKPSETLSLTCAVSGHSISHDHAWSWVRQPPGEGLEWIGFISYSGITNYNPSLQGRVTISRDNSKNTLYLQMNSLRAEDTAVYYCARSLARTTAMDYWGEGTLVTVSSASTKGPSVFPLAPSSKSTSGGTAALGCLVKDYFPEPVTVSWNSGALTSGVHTFPAVLQSSGLYSLSSVVTVPSSSLGTQTYICNVNHKPSNTKVDKKVEPKSCDKTHTCPPCPAPDYLGDDSVFLFPPKPKDTLMISRTPEVTCVVVDVSHEDPEVKFNWYVDGVEVHNAKTKPREEQDNSTYRVVSVLTVLHQDWLNGKEYKCKVSNAALPKPIEKTISKAKGQPREPQVYTLPPSRDELTKNQVSLTCLVKGFYPSDIAVEWESNGQPENNYKTTPPVLDSDGSFFLYSKLTVDKSRWQQGNVFSCSVMHEALHNHYTQESLSLSP
light: DIQMTQSPSSLSASVGDRVTITCRASQDISSYLNWYQQKPGKAPKLLIYYTSRLHSGVPSRFSGSGSGTDFTFTISSLQPEDIATYYCQQGNTLPYTFGQGTKVEIK
For B2, in the assay with FcγRIIb [1], the “KD(IIb) … of altered polypeptide” value was found to be 33.1. The Kd in the assay with FcγRIa came to 0.12 µM; with FcγRIIa type R [2], 1.4 µM; with FcγRIIa type H, 8.4 µM; with FcγRIIb [3] it was 0.093 µM; in the assay with FcγRIIIa type V it was 37 µM. Further, in the assay with FcγRIIb [4], the “KD(IIaH)/KD(IIb)” value came out at 89.9. Also, in the assay with FcγRIIb [5], the “KD(IIaR)/KD(IIb)” value is 15. Further, the “KD of the stronger of FcγRIIaR/FcγRIIaH binding of the variant / that of the parent polypeptide” value in the assay with FcγRIIa type R [6] was 1.8.

B3: IL6R-BP143/IL6R-L (antibody, human IgG1)
heavy: QVQLQESGPGLVKPSETLSLTCAVSGHSISHDHAWSWVRQPPGEGLEWIGFISYSGITNYNPSLQGRVTISRDNSKNTLYLQMNSLRAEDTAVYYCARSLARTTAMDYWGEGTLVTVSSASTKGPSVFPLAPSSKSTSGGTAALGCLVKDYFPEPVTVSWNSGALTSGVHTFPAVLQSSGLYSLSSVVTVPSSSLGTQTYICNVNHKPSNTKVDKKVEPKSCDKTHTCPPCPAPEYLGGDSVFLFPPKPKDTLMISRTPEVTCVVVDVSHEDPEVKFNWYVDGVEVHNAKTKPREEQYNSTYRVVSVLTVLHQDWLNGKEYKCKVSNAALPAPIEKTISKAKGQPREPQVYTLPPSRDELTKNQVSLTCLVKGFYPSDIAVEWESNGQPENNYKTTPPVLDSDGSFFLYSKLTVDKSRWQQGNVFSCSVMHEALHNHYTQESLSLSP
light: DIQMTQSPSSLSASVGDRVTITCRASQDISSYLNWYQQKPGKAPKLLIYYTSRLHSGVPSRFSGSGSGTDFTFTISSLQPEDIATYYCQQGNTLPYTFGQGTKVEIK
Turning to B3, in the assay with FcγRIIb [1], the “KD(IIb) … of altered polypeptide” value was found to be 5.4. In addition, the Kd with FcγRIa was determined as 0.016 µM; with FcγRIIa type R [2] it was 5.7 µM; with FcγRIIa type H it was 27 µM; in the assay with FcγRIIb [3], 0.57 µM; in the assay with FcγRIIIa type V, 62 µM. In addition, the “KD(IIaH)/KD(IIb)” value in the assay with FcγRIIb [4] came out at 47.1. The “KD(IIaR)/KD(IIb)” value with FcγRIIb [5] was 10. Also, the “KD of the stronger of FcγRIIaR/FcγRIIaH binding of the variant / that of the parent polypeptide” value with FcγRIIa type R [6] was determined as 7.5.

B4: IL6R-BP130/IL6R-L (antibody, human IgG1)
heavy: QVQLQESGPGLVKPSETLSLTCAVSGHSISHDHAWSWVRQPPGEGLEWIGFISYSGITNYNPSLQGRVTISRDNSKNTLYLQMNSLRAEDTAVYYCARSLARTTAMDYWGEGTLVTVSSASTKGPSVFPLAPSSKSTSGGTAALGCLVKDYFPEPVTVSWNSGALTSGVHTFPAVLQSSGLYSLSSVVTVPSSSLGTQTYICNVNHKPSNTKVDKKVEPKSCDKTHTCPPCPAPDLLGGDSVFLFPPKPKDTLMISRTPEVTCVVVDVSHEDPEVKFNWYVDGVEVHNAKTKPREEQYNSTYRVVSVLTVLHQDWLNGKEYKCKMSNKALPKPIEKTISKAKGQPREPQVYTLPPSRDELTKNQVSLTCLVKGFYPSDIAVEWESNGQPENNYKTTPPVLDSDGSFFLYSKLTVDKSRWQQGNVFSCSVMHEALHNHYTQESLSLSP
light: DIQMTQSPSSLSASVGDRVTITCRASQDISSYLNWYQQKPGKAPKLLIYYTSRLHSGVPSRFSGSGSGTDFTFTISSLQPEDIATYYCQQGNTLPYTFGQGTKVEIK
B4: the “KD(IIb) … of altered polypeptide” value in the assay with FcγRIIb [1] was 10.2. For the same molecule, the Kd worked out at 0.0018 µM in the assay with FcγRIa; 5.3 µM with FcγRIIa type R [2]; 26 µM in the assay with FcγRIIa type H; 0.3 µM in the assay with FcγRIIb [3]; 71 µM in the assay with FcγRIIIa type V. Moreover, the “KD(IIaH)/KD(IIb)” value with FcγRIIb [4] amounted to 85.5. The “KD(IIaR)/KD(IIb)” value with FcγRIIb [5] stood at 17.5. The “KD of the stronger of FcγRIIaR/FcγRIIaH binding of the variant / that of the parent polypeptide” value with FcγRIIa type R [6] is 6.9.

B5: IL6R-BP131/IL6R-L (antibody, human IgG1)
heavy: QVQLQESGPGLVKPSETLSLTCAVSGHSISHDHAWSWVRQPPGEGLEWIGFISYSGITNYNPSLQGRVTISRDNSKNTLYLQMNSLRAEDTAVYYCARSLARTTAMDYWGEGTLVTVSSASTKGPSVFPLAPSSKSTSGGTAALGCLVKDYFPEPVTVSWNSGALTSGVHTFPAVLQSSGLYSLSSVVTVPSSSLGTQTYICNVNHKPSNTKVDKKVEPKSCDKTHTCPPCPAPDLLGDDSVFLFPPKPKDTLMISRTPEVTCVVVDVSHEDPEVKFNWYVDGVEVHNAKTKPREEQYNSTYRVVSVLTVLHQDWLNGKEYKCKVSNKALPKPIEKTISKAKGQPREPQVYTLPPSRDELTKNQVSLTCLVKGFYPSDIAVEWESNGQPENNYKTTPPVLDSDGSFFLYSKLTVDKSRWQQGNVFSCSVMHEALHNHYTQESLSLSP
light: DIQMTQSPSSLSASVGDRVTITCRASQDISSYLNWYQQKPGKAPKLLIYYTSRLHSGVPSRFSGSGSGTDFTFTISSLQPEDIATYYCQQGNTLPYTFGQGTKVEIK
On to B5, for which the “KD(IIb) … of altered polypeptide” value with FcγRIIb [1] amounted to 12.6. The Kd was found to be 0.12 µM with FcγRIa; 3.1 µM with FcγRIIa type R [2]; 14 µM with FcγRIIa type H; 0.25 µM with FcγRIIb [3]; 59 µM with FcγRIIIa type V. Also, the “KD(IIaH)/KD(IIb)” value with FcγRIIb [4] stood at 56.9. Moreover, the “KD(IIaR)/KD(IIb)” value with FcγRIIb [5] is 12.5. Besides, the “KD of the stronger of FcγRIIaR/FcγRIIaH binding of the variant / that of the parent polypeptide” value with FcγRIIa type R [6] was found to be 4.

B6: IL6R-BP087/IL6R-L (antibody, human IgG1)
heavy: QVQLQESGPGLVKPSETLSLTCAVSGHSISHDHAWSWVRQPPGEGLEWIGFISYSGITNYNPSLQGRVTISRDNSKNTLYLQMNSLRAEDTAVYYCARSLARTTAMDYWGEGTLVTVSSASTKGPSVFPLAPSSKSTSGGTAALGCLVKDYFPEPVTVSWNSGALTSGVHTFPAVLQSSGLYSLSSVVTVPSSSLGTQTYICNVNHKPSNTKVDKKVEPKSCDKTHTCPPCPAPEYLGGDSVFLFPPKPKDTLMISRTPEVTCVVVDVSHEDPEVKFNWYVDGVEVHNAKTKPREEQYNSTYRVVSVLTVLHQDWLNGKEYKCKVSNKALPKPIEKTISKAKGQPREPQVYTLPPSRDELTKNQVSLTCLVKGFYPSDIAVEWESNGQPENNYKTTPPVLDSDGSFFLYSKLTVDKSRWQQGNVFSCSVMHEALHNHYTQESLSLSP
light: DIQMTQSPSSLSASVGDRVTITCRASQDISSYLNWYQQKPGKAPKLLIYYTSRLHSGVPSRFSGSGSGTDFTFTISSLQPEDIATYYCQQGNTLPYTFGQGTKVEIK
As for B6, the “KD(IIb) … of altered polypeptide” value in the assay with FcγRIIb [1] worked out at 5.1. The Kd with FcγRIa was determined as 0.038 µM; in the assay with FcγRIIa type R [2], 9.7 µM; in the assay with FcγRIIa type H, 21 µM; with FcγRIIb [3], 0.61 µM; with FcγRIIIa type V it was 44 µM. Further, the “KD(IIaH)/KD(IIb)” value in the assay with FcγRIIb [4] came out at 34.7. Moreover, the “KD(IIaR)/KD(IIb)” value in the assay with FcγRIIb [5] worked out at 16. Also, the “KD of the stronger of FcγRIIaR/FcγRIIaH binding of the variant / that of the parent polypeptide” value with FcγRIIa type R [6] was determined as 12.6.
